Results on 9 molecules are retold here after patent publication US20110243954A1 (published 2011).

Sequences and labels used below:
B1: 12A2 sv1-AAA-12A2 sv1-9GS-59C2 (vWF-0055) (VHH)
chain: DVQLVESGGGLVQPGGSLRLSCAASGRTFSYNPMGWFRQAPGKGRELVAAISRTGGSTYYPESVEGRFTISRDNAKRTVYLQMNSLRAEDTAVYYCAAAGVRAEQGRVRTLPSEYTFWGQGTQVTVSSAAAEVQLVESGGGLVQPGGSLRLSCAASGRTFSYNPMGWFRQAPGKGRELVAAISRTGGSTYYPESVEGRFTISRDNAKRTVYLQMNSLRAEDTAVYYCAAAGVRAEQGRVRTLPSEYTFWGQGTQVTVSSGGGGSGGGSRDWDFDVFGGGTPVGG
notes: bivalent anti-vWF Nanobody with one C-terminal 59C2 peptide
B2: 12A2 sv1-AAA-12A2 sv1-9GS-59C2-9GS-59C2 (vWF-0056) (VHH)
chain: DVQLVESGGGLVQPGGSLRLSCAASGRTFSYNPMGWFRQAPGKGRELVAAISRTGGSTYYPESVEGRFTISRDNAKRTVYLQMNSLRAEDTAVYYCAAAGVRAEQGRVRTLPSEYTFWGQGTQVTVSSAAAEVQLVESGGGLVQPGGSLRLSCAASGRTFSYNPMGWFRQAPGKGRELVAAISRTGGSTYYPESVEGRFTISRDNAKRTVYLQMNSLRAEDTAVYYCAAAGVRAEQGRVRTLPSEYTFWGQGTQVTVSSGGGGSGGGSRDWDFDVFGGGTPVGGGGGGSGGGSRDWDFDVFGGGTPVGG
notes: bivalent anti-vWF Nanobody with a C-terminal tandem repeat of 59C2

One test addresses T1, human serum albumin (human, UniProt P02768 25-609).
T1 construct: HSA used in ELISA and SPR was bought (Sigma); also called HSA
Put plainly: phage competition ELISA: signal of well with 2 µM HSA competitor / signal of well with no competitor. The procedure: (§1) A competition ELISA was performed to determine the relative binding affinity for the selected phage clones. 96-well Nunc Maxisorp plates were coated with 2 μg/ml HSA in coating buffer at 4° C. Plates were blocked with SuperblockT20 (Pierce) for 1 h at room temperature. The microtiter plates were washed with wash buffer (PBS, 0.05% Tween 20).
After respectively three and four selection rounds, monoclonal phage were screened for binding on HSA, in the manner described in Example 2. […] The ratio of phage binding was calculated by the following equation: fluorescence signal of well with 2 μM competitor/fluorescence signal of well with no competitor (Table VI).
A general note: An ELISA detects its analyte on a solid surface through an enzyme-linked reagent.
For AARDWDFDVFGGGTPVGG (also called EXP59C2) [59C2], the “Ratio 2 µM/0 µM HSA” value was found to be 0.91 ratio.
Take AARSWDFDVFGGGTPVGG [59H12]: the “Ratio 2 µM/0 µM HSA” value was 0.87 ratio.
Consider AARYWDFDVFGGGTPVGG [59F2], for which the “Ratio 2 µM/0 µM HSA” value came to 0.69 ratio.
Consider AARYWDYDVFGGGTPVGG (also called EXP56E4) [PMP56E4], for which the “Ratio 2 µM/0 µM HSA” value was found to be 0.82 ratio.

The target in the next test is T2, von Willebrand factor (human, UniProt P04275 764-2813).
T2 construct: also called vWF; VWF
Put plainly: inhibition ELISA of ristocetin-induced binding of vWF to platelets. The procedure:
After 3 times washing with phosphate buffered saline (PBS), wells were incubated for 1 hour at room temperature (RT) with formalin fixed human platelets (Dade Behring, Newark, Del.) which were diluted two-fold in PBS or—as a blank—with PBS. Wells were washed 3 times with PBS and blocked for 2 hours at RT with PBS containing 4% bovine serum albumin (BSA, Sigma). A dilution series of compound was prepared in human plasma and was preincubated for 30 min at RT with 1.5 mg/mL ristocetin (abp, NJ, USA) after which the mixture was transferred to the coated wells. […] For the analysis of the data, the absorbance values were corrected using the absorbance of the respective blanks.
For the molecule B1, the binding result is reported as “binds”.
On the same count and under the same terms, the same measure for B2: “binds”.

Another test has as its target T1, human serum albumin. Put plainly: solution binding competition ELISA: phage pre-incubated with 1 µM HSA, unbound phage captured on coated HSA; signal with competitor / without. Here is the method:
as §1
Unbound phage was captured by transferring 100 μl of the well mixture to the HSA coated Maxisorp plate and incubating at room temperature for 30 minutes. The plate with captured phage was washed with PBS-0.05% Tween 20 five times. Bound phages were detected with anti-M13 and goat-anti mouse IRDye conjugate. The amount of IRDye bound was measured on Odyssey (LI-COR Biosciences). The ratio of phage binding was calculated by the following equation: fluorescence signal of well with competitor/fluorescence signal of well with no competitor (Table III).
AALYDDYDVFGGGTPVGG (also called 01C7; PMP26A3 (in the text)) [PMP56A3]: the “Ratio 1 µM/0 µM HSA” value turned out to be 0.47 ratio.
As to AALYDDYDVFGGGTPAGG [01B3], the “Ratio 1 µM/0 µM HSA” value was 0.42 ratio.
Same read-out and setting: the same measure for AAFYDDYDVFGGGTPAGG (also called 01G7; PMP54H5 (in the text)) [PMP56H5]: 0.43 ratio.
